Data as given in US20090011405A1 (priority 2003, published 2009).

Experiments:
[1] = target: JUN1 (amino acids 187-334, inclusive, of the JUN protein); experiment: cell-based or functional assay
[2] = target: JUNZ (amino acids 259-309, inclusive, of the JUN protein); experiment: cell-based or functional assay
[3] = tested on: JUN1 and JUNZ (c-Jun self dimerization); experiment: Reverse two-hybrid assay with JUN1 and JUNZ, background and plating efficiency; format: cell-based, yeast
Method: A reverse two-hybrid assay was performed using the interacting proteins JUN1 (amino acids 187-334, inclusive, of the JUN protein) and JUNZ (amino acids 259-309, inclusive, of the JUN protein) both of which comprise the leucine zipper domain of c-Jun (ie the region necessary for self dimerization). As a positive control FOSZ (amino acids 111-195, inclusive, of the FOS protein), a known blocker of c-Jun self dimerization was used. As a negative control, the expression vector alone was used. Gene constructs were transformed into cells comprising the negative selectable markers URA3 and CYH2.
Cells comprising only the interacting partners or the interacting partners and FOSZ (19F) or the interacting partners and the negative control (19) were grown in various concentrations of uracil (from 10 mg/L to 0 mg/L). All cells were also plated in the presence of 0.02% galactose; 0.04% FOA; and 5 μg/ml cycloheximide.
Background was determined by estimating the number of cells (colonies) that expressed only JUN1 and JUNZ and were still capable of growing in the presence of 5-FOA. Plating efficiency was determined by estimating the number of cells out of the 500 plated that expressed JUN1, JUNZ and FOSZ that were capable of growing in each set of conditions.
Using the same expression constructs and cells as in Example 2 cells were plated in the presence of increasing concentrations of 5-FOA and uracil. […]

Molecule: FOSZ (amino acids 111-195, inclusive, of the FOS protein) (from UniProt P01100 111-195)
- plating efficiency (cells expressing JUN1, JUNZ and FOSZ that grow under counter-selection) [1]: > 40%
- plating efficiency (cells expressing JUN1, JUNZ and FOSZ that grow under counter-selection) [2]: > 40%

Molecule: O=c1cc[nH]c(=O)[nH]1 [uracil]
- background (effect of increased uracil concentration) ([3]; JUN1/JUNZ cells, uracil 10 to 0 mg/L, 0.02% galactose, 0.04% FOA, 5 μg/ml cycloheximide): increased background
- plating efficiency (effect of increased uracil concentration) ([3]; JUN1/JUNZ/FOSZ cells, uracil 10 to 0 mg/L, 0.02% galactose, 0.04% FOA, 5 μg/ml cycloheximide): reduced plating efficiency
- background ([3]; cells expressing only JUN1 and JUNZ, 0.25 and 0.5 mg/L uracil, 0.02% galactose, 0.04% FOA, 5 μg/ml cycloheximide): 0%

Molecule: C[C@@H]1C[C@@H]([C@H](O)CC2CC(=O)NC(=O)C2)C(=O)[C@@H](C)C1 [cycloheximide]
- background (effect of increasing cycloheximide concentration) ([3]; JUN1/JUNZ cells, 0.2 or 0.5 mg/L uracil, 0.06% 5-FOA, 10000 or 100000 cells plated): lower levels of background

Molecule: JUN1 (amino acids 187-334, inclusive, of the JUN protein)
- background (colonies expressing only JUN1 and JUNZ that still grow in the presence of 5-FOA) [2]: 0%

B1: FOSZ: amino acids 111-195, inclusive, of the FOS protein, a known blocker of c-Jun self dimerization (protein)
chain: VVKTMTGGRAQSIGRRGKVEQLSPEEEEKRRIRRERNKMAAAKCRNRRRELTDTLQAETDQLEDEKSALQTEIANLLKEKEKLEF
- plating efficiency ([3]; cells expressing JUN1, JUNZ and FOSZ (19F), 500 plated, low concentrations of uracil, 0.02% galactose, 0.04% FOA, 5 μg/ml cycloheximide): greater than 40%
